Target: Yn-ABHD5 (UniProt Q9DBL9)
Assay: split reporter

Chain of Yn-ABHD5 (Q9DBL9 whole entry): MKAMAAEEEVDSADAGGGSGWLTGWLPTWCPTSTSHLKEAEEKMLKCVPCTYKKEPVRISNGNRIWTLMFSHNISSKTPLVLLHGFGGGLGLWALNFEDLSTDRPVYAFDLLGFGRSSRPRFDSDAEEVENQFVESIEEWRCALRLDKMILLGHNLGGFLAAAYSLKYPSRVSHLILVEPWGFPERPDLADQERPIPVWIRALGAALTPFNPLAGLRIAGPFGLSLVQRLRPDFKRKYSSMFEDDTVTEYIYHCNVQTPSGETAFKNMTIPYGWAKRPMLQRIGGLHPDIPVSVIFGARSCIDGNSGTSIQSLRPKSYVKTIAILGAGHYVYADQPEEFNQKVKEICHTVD

percent of transfected cells with BiFC: > 90%
Substance: PNPLA3-Yc (from UniProt Q91WW7 1-413) (natural protein)

Source: PMC6730670
